Tested on: CN[C@@H]1[C@H](O)[C@H](NC)[C@H]2O[C@@]3(O)C(=O)C[C@@H](C)O[C@H]3O[C@@H]2[C@H]1O
Assay: purified protein
Format: biochemical, Stenotrophomonas maltophilia
Conditions: 2 mM ATP, 10 mM MgCl2, 20 mM KCl, 100 mM HEPES pH 7.0, 37 °C

## APH(9)-Ic (Stenotrophomonas maltophilia K279a)
  Km: 31 ± 5 µM
  kcat: 1.09 ± 0.09 s⁻¹
